What was measured:
yeast cells = experiment: Dihydroethidium assay for ROS detection in yeast cells expressing a P450 reductase; format: cell-based, Saccharomyces cerevisiae; details: gene synthesized using yeast-biased codons compared with ΔN1hRD-M gene isolated from human liver cDNA library; FIG. 13
Protocol: The reactive oxygen species generated in yeast cells due to expression of a P450 reductase were assessed using dihydroethidium fluorescence assay. Reactive oxygen species reacts with dihydroethidium to produce ethidium bromide which binds to the nuclear DNA and emits red fluorescence. Dihydroethidine is one of the best reagents available for measuring intracellular production of reactive oxygen species. After overnight induction of a P450 reductase, the cultures were analysed for induction of reactive oxygen species. The control (wt-hRD) and test (ΔN1hRD-M, ΔN1hRD-HDEL, ΔN2hRD-HDEL) yeast cultures were washed in sterile PBS and then incubated with dihydroethidium (5 μM final concentration) for 30 min. After washing with sterile PBS twice (to remove the extracellular dye), the samples were transferred into 96-well black plates with transparent bottom (COSTAR®). Fluorescence was measured using a BIO-TEK® plate reader. Excitation and emission wavelengths were 260 and 610 nm respectively. The percent induction in the formation of reactive oxygen species was calculated by comparing with cultures where genes were not induced.

CYP1A2 = experiment: Amount of CYP1A2 in yeast microsomes by CO-difference spectra, co-expressed with P450 reductase variants; format: cell-based, human; details: relative to hRD = 1; yeast W303B, pSYE265
Protocol: (§1) The hRD variant genes, (ΔN1hRD-M, ΔN1hRD-HDEL, ΔN2hRD-HDEL), were integrated into Saccharomyces cerevisiae strain W303B (MAT a leu2 his3 trp1 can1-100 ade2 trp1 ura3) using standard yeast transformation procedures as detailed below. The integrating plasmids, bearing the ΔN1hRD-M, ΔN1hRD-HDEL, ΔN2hRD-HDEL genes, were first linearised with the restriction enzyme BstEII before introducing linearised DNA into yeast cells via homologous recombination. The resultant strains were named: • a) W303B-ΔN1hRD-M, • b) W303B-ΔN1hRD-HDEL, • c) W303B-ΔN2hRD-HDEL.
(§2) They were used for the transformation of the yeast episomal plasmids that bear the CYP2D6 and CYP1A2 genes: • 1. pSYE264 (bearing the human CYP2D6 gene), • 2. pSYE265 (bearing the human CYP1A2 gene).
(§3) A single colony from the strains W303B-ΔN1hRD-M, W303B-ΔN1hRD-HDEL, W303B-ΔN2hRD-HDEL were picked up from a minimal medium (SD) plate (supplemented with appropriate nutrients depending on the auxotrophic markers in the yeast strain) and inoculated into 10 ml of YPD medium (2% Bacto Peptone, 1% yeast extract, 2% glucose). The cells were grown overnight at 30° C. with 220 rpm shaking. 1.5 ml of overnight cultures were centrifuged at 13,000 rpm for a few seconds to collect the cell pellets. 0.5-2 μg of transforming DNA (i.e. the CYP bearing expression plasmids, pSYE264 and pSYE265) and 100 μg of single-stranded salmon sperm DNA were added to pellets and vortexed briefly. 500 μl of PEG solution (40% PEG 3350, 0.1M lithium acetate pH 7.5, 10 mM Tris-HCl pH 7.5, 1 mM EDTA pH7.5) and 5-10% DMSO were added to transformation mixes. All mixes were incubated in a Thermo-mixer for 15 min at 25° C. with shaking at 400 rpm, and then were heat shocked for 15 min at 42° C. After 10 min, 5-10% ethanol was added. The cells were pelleted at 8000 rpm for 1 min and were washed twice in 1×TE buffer and re-suspended in 250 μl-500 μl 1×TE pH7.5. The cells were plated out on SD agar medium and incubated at 30° C. for 2-3 days.
(§4) Recombinant yeast cells were grown in culture using the following protocol: • 1. […] On day two, once OD600 (i.e. OD measured at 600 nm) of the cultures reached 5 to 6 OD-s, the cultures were inoculated into 400 ml YPD medium (1% Bacto Peptone, 1% yeast extract, 2% glucose) with appropriate nutrients in 2-liter flask. […] On day three, after 16 hours, optical density was again measured at 600 nm after diluting the original culture 1:10. […] At the final step, supernatant was poured away and the dry pellet was frozen at −80° C. and the pellet weight was recorded. […]
(§5) The cell pellet that had been obtained from the earlier cell culture was weighed and the weight of cell pellet was recorded. […]

CYP2D6 = experiment: Amount of CYP2D6 in yeast microsomes by CO-difference spectra, co-expressed with P450 reductase variants; format: cell-based, human; details: relative to hRD = 1; genes synthesized using yeast biased codons; yeast W303B, pSYE264
Protocol: as §1, §2, §3, §4, §5

CYP = CYP specific activity on co-expression of a CYP with the reductase; format: biochemical; details: co-expressed with a CYP
Description: The activity of cytochrome P450 may be measured by the EROD assay or by other assays known in the art. The expression of cytochrome P450 may be measured using CO-difference spectra as is known in the art and is described in the examples herein.

B1: ΔN1hRD-M: human P450 reductase lacking N-terminal 24 amino acids, with C-terminal 12-amino acid c-myc tag; described in WO 2007/129050; gene SEQ ID NO: 5 (protein)
chain: MTDMILFSLIVGLLTYWFLFRKKKEEVPEFTKIQTLTSSVRESSFVEKMKKTGRNIIVFYGSQTGTAEEFANRLSKDAHRYGMRGMSADPEEYDLADLSSLPEIDNALVVFCMATYGEGDPTDNAQDFYDWLQETDVDLSGVKFAVFGLGNKTYEHFNAMGKYVDKRLEQLGAQRIFELGLGDDDGNLEEDFITWREQFWPAVCEHFGVEATGEESSIRQYELVVHTDIDAAKVYMGEMGRLKSYENQKPPFDAKNPFLAAVTTNRKLNQGTERHLMHLELDISDSKIRYESGDHVAVYPANDSALVNQLGKILGADLDVVMSLNNLDEESNKKHPFPCPTSYRTALTYYLDITNPPRTNVLYELAQYASEPSEQELLRKMASSSGEGKELYLSWVVEARRHILAILQDCPSLRPPIDHLCELLPRLQARYYSIASSSKVHPNSVHICAVVVEYETKAGRINKGVATNWLRAKEPAGENGGRALVPMFVRKSQFRLPFKATTPVIMVGPGTGVAPFIGFIQERAWLRQQGKEVGETLLYYGCRRSDEDYLYREELAQFHRDGALTQLNVAFSREQSHKVYVQHLLKQDREHLWKLIEGGAHIYVCGDARNMARDVQNTFYDIVAELGAMEHAQAVDYIKKLMTKGRYSLDVWSSSEQKLISEEDLNGSRL
modifications: delN1hRD-M
Yeast cells
  ROS produced: far less ROS
CYP1A2
  Relative Amounts of CYP1A2 Obtained: 3.2 ± 10%
CYP2D6
  Relative Amounts of CYP2D6 Obtained: 3 ± 10%
CYP
  CYP specific activities: higher CYP specific activities

B2: hRD: wild-type human P450 reductase, full length, control (protein, listed as Homo sapiens)
chain: MGDSHVDTSSTVSEAVAEEVSLFSMTDMILFSLIVGLLTYWFLFRKKKEEVPEFTKIQTLTSSVRESSFVEKMKKTGRNIIVFYGSQTGTAEEFANRLSKDAHRYGMRGMSADPEEYDLADLSSLPEIDNALVVFCMATYGEGDPTDNAQDFYDWLQETDVDLSGVKFAVFGLGNKTYEHFNAMGKYVDKRLEQLGAQRIFELGLGDDDGNLEEDFITWREQFWPAVCEHFGVEATGEESSIRQYELVVHTDIDAAKVYMGEMGRLKSYENQKPPFDAKNPFLAAVTTNRKLNQGTERHLMHLELDISDSKIRYESGDHVAVYPANDSALVNQLGKILGADLDVVMSLNNLDEESNKKHPFPCPTSYRTALTYYLDITNPPRTNVLYELAQYASEPSEQELLRKMASSSGEGKELYLSWVVEARRHILAILQDCPSLRPPIDHLCELLPRLQARYYSIASSSKVHPNSVHICAVVVEYETKAGRINKGVATNWLRAKEPAGENGGRALVPMFVRKSQFRLPFKATTPVIMVGPGTGVAPFIGFIQERAWLRQQGKEVGETLLYYGCRRSDEDYLYREELAQFHRDGALTQLNVAFSREQSHKVYVQHLLKQDREHLWKLIEGGAHIYVCGDARNMARDVQNTFYDIVAELGAMEHAQAVDYIKKLMTKGRYSLDVWS
CYP1A2
  Relative Amounts of CYP1A2 Obtained: 1
CYP2D6
  Relative Amounts of CYP2D6 Obtained: 1

B3: ΔN1hRD-HDEL: human P450 reductase lacking N-terminal 24 amino acids, with C-terminal yeast ER retention signal HDEL (protein)
chain: MTDMILFSLIVGLLTYWFLFRKKKEEVPEFTKIQTLTSSVRESSFVEKMKKTGRNIIVFYGSQTGTAEEFANRLSKDAHRYGMRGMSADPEEYDLADLSSLPEIDNALVVFCMATYGEGDPTDNAQDFYDWLQETDVDLSGVKFAVFGLGNKTYEHFNAMGKYVDKRLEQLGAQRIFELGLGDDDGNLEEDFITWREQFWPAVCEHFGVEATGEESSIRQYELVVHTDIDAAKVYMGEMGRLKSYENQKPPFDAKNPFLAAVTTNRKLNQGTERHLMHLELDISDSKIRYESGDHVAVYPANDSALVNQLGKILGADLDVVMSLNNLDEESNKKHPFPCPTSYRTALTYYLDITNPPRTNVLYELAQYASEPSEQELLRKMASSSGEGKELYLSWVVEARRHILAILQDCPSLRPPIDHLCELLPRLQARYYSIASSSKVHPNSVHICAVVVEYETKAGRINKGVATNWLRAKEPAGENGGRALVPMFVRKSQFRLPFKATTPVIMVGPGTGVAPFIGFIQERAWLRQQGKEVGETLLYYGCRRSDEDYLYREELAQFHRDGALTQLNVAFSREQSHKVYVQHLLKQDREHLWKLIEGGAHIYVCGDARNMARDVQNTFYDIVAELGAMEHAQAVDYIKKLMTKGRYSLDVWSHDEL
modifications: delN1hRD-HDEL
notes: human P450 reductase lacking N-terminal 24 amino acids, with C-terminal yeast ER retention signal HDEL
CYP1A2
  Relative Amounts of CYP1A2 Obtained: 4.0 ± 10%
CYP2D6
  Relative Amounts of CYP2D6 Obtained: 3.8 ± 10%

B4: ΔN2hRD-HDEL: human P450 reductase lacking the 54-amino acid membrane anchoring region, with C-terminal yeast ER retention signal HDEL (protein)
chain: MTKIQTLTSSVRESSFVEKMKKTGRNIIVFYGSQTGTAEEFANRLSKDAHRYGMRGMSADPEEYDLADLSSLPEIDNALVVFCMATYGEGDPTDNAQDFYDWLQETDVDLSGVKFAVFGLGNKTYEHFNAMGKYVDKRLEQLGAQRIFELGLGDDDGNLEEDFITWREQFWPAVCEHFGVEATGEESSIRQYELVVHTDIDAAKVYMGEMGRLKSYENQKPPFDAKNPFLAAVTTNRKLNQGTERHLMHLELDISDSKIRYESGDHVAVYPANDSALVNQLGKILGADLDVVMSLNNLDEESNKKHPFPCPTSYRTALTYYLDITNPPRTNVLYELAQYASEPSEQELLRKMASSSGEGKELYLSWVVEARRHILAILQDCPSLRPPIDHLCELLPRLQARYYSIASSSKVHPNSVHICAVVVEYETKAGRINKGVATNWLRAKEPAGENGGRALVPMFVRKSQFRLPFKATTPVIMVGPGTGVAPFIGFIQERAWLRQQGKEVGETLLYYGCRRSDEDYLYREELAQFHRDGALTQLNVAFSREQSHKVYVQHLLKQDREHLWKLIEGGAHIYVCGDARNMARDVQNTFYDIVAELGAMEHAQAVDYIKKLMTKGRYSLDVWSHDEL
modifications: delN2hRD-HDEL
notes: human P450 reductase lacking the 54-amino acid membrane anchoring region, with C-terminal yeast ER retention signal HDEL
CYP1A2
  Relative Amounts of CYP1A2 Obtained: 4.5 ± 10%
CYP2D6
  Relative Amounts of CYP2D6 Obtained: 4.0 ± 10%
